Source: patent US20260028403A1 (Zymeworks, published 2026)

T1: Cynomolgus monkey CLDN18 (cynomolgus monkey)
T1 construct: on transfected HEK293-6E cells; also called Cyno CLDN18; cyno CLDN18.2 ortholog
T1 chain: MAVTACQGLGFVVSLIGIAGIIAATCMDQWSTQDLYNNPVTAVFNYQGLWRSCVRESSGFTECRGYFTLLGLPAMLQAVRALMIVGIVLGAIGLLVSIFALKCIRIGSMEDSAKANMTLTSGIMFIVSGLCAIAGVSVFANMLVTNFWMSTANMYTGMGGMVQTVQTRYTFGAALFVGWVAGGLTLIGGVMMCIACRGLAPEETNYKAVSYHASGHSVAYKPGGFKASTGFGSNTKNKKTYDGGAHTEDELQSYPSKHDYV

T2: Mouse CLDN18 A2.1 (mouse, UniProt P56857 10-264)
T2 construct: on transfected HEK293-6E cells; also called Mouse CLDN18 2.1; mouse CLDN18.2 ortholog
T2 chain: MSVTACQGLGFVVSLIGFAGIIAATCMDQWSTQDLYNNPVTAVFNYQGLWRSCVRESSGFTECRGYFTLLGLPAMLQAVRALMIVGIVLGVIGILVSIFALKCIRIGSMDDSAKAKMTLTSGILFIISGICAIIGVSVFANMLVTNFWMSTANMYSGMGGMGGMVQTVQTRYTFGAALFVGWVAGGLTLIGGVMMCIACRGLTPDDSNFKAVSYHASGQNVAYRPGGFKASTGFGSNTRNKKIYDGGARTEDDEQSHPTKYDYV


Columns and labels:
Cynomolgus monkey CLDN18 = biological target: T1, Cynomolgus monkey CLDN18; assay: flow cytometry, HEK293-6E + cyno CLDN18, 4PL fit
Experimental: (§1) The purified rabbit chimeric and humanized constructs were assessed for binding to HEK293-6E cells transfected with human, cynomolgus monkey, or mouse CLDN18.2 orthologs (TABLE 12) by flow cytometry. […] Constructs were also assessed for binding to HEK293-6E cells transfected with human CLDN18.1.

Mouse CLDN18 A2.1 = biological target: T2, Mouse CLDN18 A2.1; assay: flow cytometry, HEK293-6E + mouse CLDN18, 4PL fit
Experimental: as §1

Human CLDN18.2 [1] = biological target: T3, Human CLDN18.2 (human); assay: flow cytometry, HEK293-6E + human CLDN18.2, 4PL fit
T3 construct: on transfected HEK293-6E cells or native on SNU 601 cells
Experimental: as §1

[2] = biological target: T4, Recombinant human/cynomolgus/rhesus macaque CD28 mouse IgG2a Fc fusion protein (Acro Biosystems) (human/cynomolgus/rhesus macaque, UniProt P10747 19-152); assay: SPR Biacore T200, CD28-mIgG2a Fc on CM5, construct injected, 1:1 model;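 further: fc fusion captured by amine coupling, run at 25 °C in HEPES buffer pH 7.4, association 140-500 s then dissociation 600-1200 s, values averaged over three independent runs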
T4 construct: bought; also called huCD28
Experimental: All SPR binding experiments were carried out using a BiacoreT200 instrument at 25° C. with 10 mM HEPES, 150 mM NaCl, 3 mM EDTA, and 0.05% Tween 20 at pH 7.4. Recombinant human/cynomolgus/rhesus macaque CD28 mouse IgG2a Fc fusion protein (Acro Biosystems) was covalently immobilized on CM5 sensor chips by amine coupling. Purified antibody constructs to be tested were injected on the sensor chip at 30 μL/min for 140-500 s following a dissociation for 600-1200 s. Resultant kₒₙ, koff and KD values were determined from fitting the sensorgrams using the 1:1 binding model with reported values as the mean of three independent runs.

[3] = biological target: T5, CD28 on primary human T cells (human, UniProt P10747 19-220); assay: cell-based or functional assay
[4] = biological target: T5, CD28 on primary human T cells; assay: cell-based or functional assay; remark: listed apart in the source
[5] = biological target: T6, Recombinant human CD3 epsilon/delta heterodimer, his tag protein (Acro Biosystems) (human, UniProt P07766 23-126; P04234 22-105); assay: SPR Biacore T200, CD3 e/d-his on CM5, construct injected, 1:1 model;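 further: measured at 25 °C in HEPES-buffered saline with EDTA and Tween 20 at pH 7.4, values are means of three independent runs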
T6 construct: bought

Human CLDN18.2 [6] = biological target: T3, Human CLDN18.2; assay: flow cytometry, SNU 601 cells
[7] = biological target: T4, Recombinant human/cynomolgus/rhesus …; assay: SPR, in-format anti-CD28 variants, huCD28

| Binder | Bmax (Cynomolgus monkey CLDN18) | EC50 (Cynomolgus monkey CLDN18) [nM] | Bmax (Mouse CLDN18 A2.1) | EC50 (Mouse CLDN18 A2.1) [nM] | Bmax (Human CLDN18.2 [1]) | EC50 (Human CLDN18.2 [1]) [nM] | Bmax (Human CLDN18.2 [6]) [MFI] | EC50 (Human CLDN18.2 [6]) [nM] | other results |
| --- | --- | --- | --- | --- | --- | --- | --- | --- | --- |
| v37638 (trispecific antibody, human IgG1, kappa, L234A L235A, wild type huTN228 Fab; Het Fc, FcKO; also called Cldn18.2xCD3xCD28 trispecific) heavy 1: not shown heavy 2: QVQLVESGGGLVQPGGSLRLSCSVSGIDLSSNPMIWVRQAPGKGLQYIGIIDTDGSTYYADWAKGRFTISKDSTTVYLQINSPRAEDTAVYYCARRLHGSSNGYYDDLWGQGTLVTVSSGGGGSGGGGSGGGGSGGGGSDGQMTQSPSSVSASVGDRVTITCQASQSIYSYLSWYQQKPGQRPKLLIYKASTLASGVPSRFSGSGSGTDFTLTISSVQPEDFATYYCQQGYTVTNVDKNTFGGGTKVEIKAAEPKSSDKTHTCPPCPAPEAAGGPSVFLFPPKPKDTLMISRTPEVTCVVVSVSHEDPEVKFNWYVDGVEVHNAKTKPREEQYNSTYRVVSVLTVLHQDWLNGKEYKCKVSNKALPAPIEKTISKAKGQPREPQVYVLPPSRDELTKNQVSLLCLVKGFYPSDIAVEWESNGQPENNYLTWPPVLDSDGSFFLYSKLTVDKSRWQQGNVFSCSVMHEALHNHYTQKSLSLSPG light: DIQMTQSPSSLSASVGDRVTITCRASESVEYYVTSLMQWYQQKPGKAPKLLIYAASNVDSGVPSRFSGSGSGTDFTLTISSLQPEDIATYYCQQSRKVPFTFGGGTKVEIKRTVAAPSVFIFPPSDEQLKSGTASVVCLLNNFYPREAKVQWKVDNALQSGNSQESVTEQDSKDSTYSLSSTLTLSKADYEKHKVYACEVTHQGLSSPVTKSFNRGEC | – | – | – | – | – | – | 9140 | 47.5 | Kd [2]: 22.2 nM; koff [2]: 0.0021 s⁻¹; kon [2]: 95500 M⁻¹ s⁻¹; IL-2 maximum cytokine, T cells alone [3]: 1750 pg/mL; IL-2 maximum cytokine, T cells with SNU 601 cells [3]: 3710 pg/mL; TNFa maximum cytokine, T cells alone [3]: 115 pg/mL; TNFa maximum cytokine, T cells with SNU 601 cells [3]: 670 pg/mL; IC50, T cell-dependent cytotoxicity on SNU 601 [4]: 0.00017 nM; Maximum Killing (%), SNU 601 [4]: 88.2%; Kd [5]: 74.6 nM; koff [5]: 0.0123 s⁻¹; kon [5]: 164000 M⁻¹ s⁻¹; Fold-change from WT [7]: 1 fold; Kd [7]: 22.2 nM; koff [7]: 0.0021 s⁻¹; kon [7]: 95500 M⁻¹ s⁻¹ |
| v37640 (trispecific antibody, human IgG1, kappa, L234A L235A, Het Fc, FcKO; also called Cldn18.2xCD28xCD3 trispecific) heavy 1: QVQLQESGPGLVKPSETLSLTCAVSGFSLTSYGVHWIRQPPGKGLEWLGVIWPGGGTNFNSALMSRLTISEDTSKNQVSLKLSSVTAADTAVYYCARDRAYGNYLYAMDYWGQGTLVTVSSASTKGPSVFPLAPSSKSTSGGTAALGCLVKDYFPEPVTVSWNSGALTSGVHTFPAVLQSSGLYSLSSVVTVPSSSLGTQTYICNVNHKPSNTKVDKKVEPKSCDKTHTCPPCPAPEAAGGPSVFLFPPKPKDTLMISRTPEVTCVVVSVSHEDPEVKFNWYVDGVEVHNAKTKPREEQYNSTYRVVSVLTVLHQDWLNGKEYKCKVSNKALPAPIEKTISKAKGQPREPQVYVYPPSRDELTKNQVSLTCLVKGFYPSDIAVEWESNGQPENNYKTTPPVLDSDGSFALVSKLTVDKSRWQQGNVFSCSVMHEALHNHYTQKSLSLSPGGGGGSGNFMLTQPHSVSESPGKTVTISCKRNTGNIGSNYVNWYQQHEGSSPTTIIYRNDKRPDGVSDRFSGSIDRSSKSASLTISNLKTEDEADYFCQSYSSGFIFGGGTKLTVLGGGGSGGGGSGGGGSGGGGSEVQLVESGGGLVQPGGSLRLSCAASGVTFNYYGMSWIRQAPGKGLEWVASITSSGGRIYYPDSVKGRFTISRENTQKTLYLQMNSLRAEDTAVYYCTLDGRDGWVAYWGQGTLVTVSS heavy 2: QVQLVESGGGLVQPGGSLRLSCSVSGIDLSSNPMIWVRQAPGKGLQYIGIIDTDGSTYYADWAKGRFTISKDSTTVYLQINSPRAEDTAVYYCARRLHGSSNGYYDDLWGQGTLVTVSSGGGGSGGGGSGGGGSGGGGSDGQMTQSPSSVSASVGDRVTITCQASQSIYSYLSWYQQKPGQRPKLLIYKASTLASGVPSRFSGSGSGTDFTLTISSVQPEDFATYYCQQGYTVTNVDKNTFGGGTKVEIKAAEPKSSDKTHTCPPCPAPEAAGGPSVFLFPPKPKDTLMISRTPEVTCVVVSVSHEDPEVKFNWYVDGVEVHNAKTKPREEQYNSTYRVVSVLTVLHQDWLNGKEYKCKVSNKALPAPIEKTISKAKGQPREPQVYVLPPSRDELTKNQVSLLCLVKGFYPSDIAVEWESNGQPENNYLTWPPVLDSDGSFFLYSKLTVDKSRWQQGNVFSCSVMHEALHNHYTQKSLSLSPG light: DIQMTQSPSSLSASVGDRVTITCRASESVEYYVTSLMQWYQQKPGKAPKLLIYAASNVDSGVPSRFSGSGSGTDFTLTISSLQPEDIATYYCQQSRKVPFTFGGGTKVEIKRTVAAPSVFIFPPSDEQLKSGTASVVCLLNNFYPREAKVQWKVDNALQSGNSQESVTEQDSKDSTYSLSSTLTLSKADYEKHKVYACEVTHQGLSSPVTKSFNRGEC | – | – | – | – | – | – | 9770 | 26.4 | Kd [2]: 27.3 nM; koff [2]: 0.00212 s⁻¹; kon [2]: 77800 M⁻¹ s⁻¹; Kd [5]: 296 nM; koff [5]: 0.0155 s⁻¹; kon [5]: 52200 M⁻¹ s⁻¹ |
| v37407 (antibody, human IgG1, V domains shown, human IgG1-based monoclonal antibody; also called H4-L4) VH: QVQLVESGGGLVQPGGSLRLSCSVSGIDLSSNPMIWVRQAPGKGLEYIGIIDTDGSTYYADWAKGRFTISKDSTTVYLQMNSLRAEDTAVYYCARRLHGSSNGYYDDLWGQGTLVTVSS VL: DGQMTQSPSSVSASVGDRVTITCQASQSIYSYLSWYQQKPGQRPKLLIYKASTLASGVPSRFSGSGSGTDFTLTISSVQPEDFATYYCQQGYTVTNVDKNTFGGGTKVEIK | 1410 | 0.24 | 1540 | 0.8 | 2040 | 1.54 | – | – | – |
| v37409 (antibody, human IgG1, V domains shown, human IgG1-based monoclonal antibody; also called H2-L4) VH: QVQLVESGGGLVQPGGSLRLSCSVSGIDLSSNPMIWVRQAPGKGLEYIGIIDTDGSTYYADWAKGRFTISKDSSKNTVYLQMNSLRAEDTAVYYCARRLHGSSNGYYDDLWGQGTLVTVSS VL: DGQMTQSPSSVSASVGDRVTITCQASQSIYSYLSWYQQKPGQRPKLLIYKASTLASGVPSRFSGSGSGTDFTLTISSVQPEDFATYYCQQGYTVTNVDKNTFGGGTKVEIK | 1500 | 0.35 | 1530 | 0.89 | 1960 | 1.22 | – | – | – |

Continued, in another order:

| Bmax (Cynomolgus monkey CLDN18) | EC50 (Cynomolgus monkey CLDN18) [nM] | Bmax (Mouse CLDN18 A2.1) | EC50 (Mouse CLDN18 A2.1) [nM] | Bmax (Human CLDN18.2 [1]) | EC50 (Human CLDN18.2 [1]) [nM] | Bmax (Human CLDN18.2 [6]) [MFI] | EC50 (Human CLDN18.2 [6]) [nM] | Binder | other results |
| --- | --- | --- | --- | --- | --- | --- | --- | --- | --- |
| 1660 | 0.48 | 1640 | 0.87 | 2070 | 1.29 | – | – | v35777 (antibody, human IgG1, V domains shown, also called parental rabbit chimeric; rabbit-human chimeric IgG1/kappa anti-CLDN18.2) VH: QSLEESGGRLVTPGTPLTLTCTVSGIDLSSNPMIWVRQAPGKGLQYIGIIDTDGSTYYASWAKGRFTGSKTSTTVDLKITSPTTEDTATYFCARRLHGSSNGYYDDLWGQGTLVTISS VL: DGVMTQTPSSVSAAVGGTVTIKCQASQSIYSYLSWYQQKPGQRPKLLIYKASTLASGVPSRFKGSGSGTEFTLTISGVQCDDAATYYCQQGYTVTNVDKNTFGGGTEVVVK | – |
| 1520 | 0.36 | 1920 | 2.65 | 2190 | 1.87 | – | – | v37408 (antibody, human IgG1, V domains shown, human IgG1-based monoclonal antibody; also called H4-L2) VH: QVQLVESGGGLVQPGGSLRLSCSVSGIDLSSNPMIWVRQAPGKGLEYIGIIDTDGSTYYADWAKGRFTISKDSTTVYLQMNSLRAEDTAVYYCARRLHGSSNGYYDDLWGQGTLVTVSS VL: DGQMTQSPSSVSASVGDRVTITCQASQSIYSYLSWYQQKPGQRPKLLIYKASTLASGVPSRFSGSGSGTDFTLTISSVQPEDAATYYCQQGYTVTNVDKNTFGGGTKVEVK | – |
| 1730 | 0.37 | 1790 | 1.03 | 2170 | 1.05 | 11700 | 8.9 | v37411 (antibody, human IgG1, V domains shown, human IgG1-based monoclonal antibody; also called H5-L4; anti-CLDN18.2 mAb) VH: QVQLVESGGGLVQPGGSLRLSCSVSGIDLSSNPMIWVRQAPGKGLQYIGIIDTDGSTYYADWAKGRFTISKDSTTVYLQINSPRAEDTAVYYCARRLHGSSNGYYDDLWGQGTLVTVSS VL: DGQMTQSPSSVSASVGDRVTITCQASQSIYSYLSWYQQKPGQRPKLLIYKASTLASGVPSRFSGSGSGTDFTLTISSVQPEDFATYYCQQGYTVTNVDKNTFGGGTKVEIK | – |
| 1500 | 0.31 | 1690 | 1.02 | 1910 | 0.97 | – | – | v37410 (antibody, human IgG1, V domains shown, human IgG1-based monoclonal antibody; also called H3-L4) VH: QVQLVESGGGLVQPGGSLRLSCSVSGIDLSSNPMIWVRQAPGKGLQYIGIIDTDGSTYYADWAKGRFTISKDSSKNTVYLQMNSLRAEDTAVYYCARRLHGSSNGYYDDLWGQGTLVTVSS VL: DGQMTQSPSSVSASVGDRVTITCQASQSIYSYLSWYQQKPGQRPKLLIYKASTLASGVPSRFSGSGSGTDFTLTISSVQPEDFATYYCQQGYTVTNVDKNTFGGGTKVEIK | – |
